Measured values reported in publication PMC3893231 (mAbs, 2013).

Biological target: T1, Ang2 (UniProt O15123 19-496)
T1 sequence: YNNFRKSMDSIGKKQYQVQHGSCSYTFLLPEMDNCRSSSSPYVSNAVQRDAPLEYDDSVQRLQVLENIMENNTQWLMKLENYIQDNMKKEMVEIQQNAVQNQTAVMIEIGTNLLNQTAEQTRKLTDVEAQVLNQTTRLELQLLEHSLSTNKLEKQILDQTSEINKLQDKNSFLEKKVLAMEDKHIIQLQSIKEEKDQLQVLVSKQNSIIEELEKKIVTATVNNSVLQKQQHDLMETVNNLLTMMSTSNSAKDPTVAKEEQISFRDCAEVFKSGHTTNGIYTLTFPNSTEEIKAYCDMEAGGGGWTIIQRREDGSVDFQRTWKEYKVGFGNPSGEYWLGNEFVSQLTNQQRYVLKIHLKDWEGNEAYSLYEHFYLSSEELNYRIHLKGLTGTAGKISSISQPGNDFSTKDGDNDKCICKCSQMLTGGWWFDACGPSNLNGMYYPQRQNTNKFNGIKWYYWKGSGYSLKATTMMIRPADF
Assay: SPR

Kd: 22.2 ± 0.08 nM
Binder: LWDDCYFFPNPPHCYNSP (designed binder) [MBP-a1]
